Results as given in PMC10073072 (2023).

Columns and labels:
[1] = biological target: METTL9^M6 (METTL9^46–318 with six mutations) (human, UniProt Q9H1A3 46-318); experiment: ITC
METTL9^46–318 = METTL9^46–318 (human, UniProt Q9H1A3 46-318); experiment: ITC
METTL9^46–318, sequence (Q9H1A3 46-318): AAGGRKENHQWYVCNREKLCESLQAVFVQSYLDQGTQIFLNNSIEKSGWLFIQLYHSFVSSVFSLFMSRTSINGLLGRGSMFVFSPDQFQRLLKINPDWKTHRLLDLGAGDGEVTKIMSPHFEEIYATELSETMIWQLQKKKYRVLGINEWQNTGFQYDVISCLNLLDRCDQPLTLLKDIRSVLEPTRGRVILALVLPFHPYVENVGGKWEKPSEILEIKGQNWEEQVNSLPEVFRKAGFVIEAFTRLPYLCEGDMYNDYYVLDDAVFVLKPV

METTL9^M6 (METTL9^46–318 with six mutations), sequence (Q9H1A3 other isoform, or with tags, fused parts or gaps): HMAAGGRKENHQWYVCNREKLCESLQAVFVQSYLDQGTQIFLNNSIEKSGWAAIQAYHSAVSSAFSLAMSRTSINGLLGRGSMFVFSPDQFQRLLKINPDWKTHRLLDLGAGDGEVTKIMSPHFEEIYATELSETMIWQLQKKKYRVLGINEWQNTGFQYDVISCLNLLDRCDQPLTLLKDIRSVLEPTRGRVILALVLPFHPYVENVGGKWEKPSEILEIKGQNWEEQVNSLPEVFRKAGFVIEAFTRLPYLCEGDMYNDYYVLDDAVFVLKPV

Row | Binder | Kd [1] [µM] | Kd (METTL9^46–318) [µM]
1 | GHQGHSHGHQGGY [SLC39A5^369–380 peptide] | 9 | 9.3
2 | RGHGHSHGKGC [mouse S100A9^101–111 peptide] | 3.6 | 2.3
